Values of other authors as cited in patent US10195287B2, “Biologically active insulin derivatives” (Chemical & Biopharmaceutical Laboratories of Patras S.A., priority 2013, dated 2019).

Target: human receptor (Homo sapiens, UniProt P06213)
Settings: compared with human insulin

Substance	activity on the human receptor
Porcine insulin: animal insulin with a single amino acid variation from the human variety	approximately the same strength
bovine insulin: animal insulin that varies from human insulin by three amino acids	approximately the same strength
